Measurements: US20080300163A1

What was measured:
[1] = target: human growth hormone receptor on IM-9 cells (human) (UniProt P10912); test: cell-based or functional assay
[2] = target: T1, full length rat GHR (L43R) on BAF3 cells (clone 2E2-2B12-F4) (rat) (UniProt P16310); test: cell-based or functional assay
T1 sequence (looked up): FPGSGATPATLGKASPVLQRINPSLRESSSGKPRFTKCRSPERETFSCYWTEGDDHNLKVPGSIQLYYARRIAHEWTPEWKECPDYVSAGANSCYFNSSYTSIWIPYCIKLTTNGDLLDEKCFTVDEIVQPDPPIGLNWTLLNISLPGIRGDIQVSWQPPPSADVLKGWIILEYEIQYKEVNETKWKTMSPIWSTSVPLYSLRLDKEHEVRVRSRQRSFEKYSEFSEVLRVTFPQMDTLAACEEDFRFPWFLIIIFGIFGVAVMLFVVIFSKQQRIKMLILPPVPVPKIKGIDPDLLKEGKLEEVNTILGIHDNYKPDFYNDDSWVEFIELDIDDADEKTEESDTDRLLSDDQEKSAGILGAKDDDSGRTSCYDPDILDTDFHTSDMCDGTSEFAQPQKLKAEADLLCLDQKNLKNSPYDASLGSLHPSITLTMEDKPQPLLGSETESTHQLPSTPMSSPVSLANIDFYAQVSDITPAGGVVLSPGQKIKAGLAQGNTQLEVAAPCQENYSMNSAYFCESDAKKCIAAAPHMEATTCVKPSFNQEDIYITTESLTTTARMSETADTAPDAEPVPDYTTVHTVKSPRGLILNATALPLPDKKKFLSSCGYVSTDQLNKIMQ

UniProt P10912, sequence (P10912 19-638): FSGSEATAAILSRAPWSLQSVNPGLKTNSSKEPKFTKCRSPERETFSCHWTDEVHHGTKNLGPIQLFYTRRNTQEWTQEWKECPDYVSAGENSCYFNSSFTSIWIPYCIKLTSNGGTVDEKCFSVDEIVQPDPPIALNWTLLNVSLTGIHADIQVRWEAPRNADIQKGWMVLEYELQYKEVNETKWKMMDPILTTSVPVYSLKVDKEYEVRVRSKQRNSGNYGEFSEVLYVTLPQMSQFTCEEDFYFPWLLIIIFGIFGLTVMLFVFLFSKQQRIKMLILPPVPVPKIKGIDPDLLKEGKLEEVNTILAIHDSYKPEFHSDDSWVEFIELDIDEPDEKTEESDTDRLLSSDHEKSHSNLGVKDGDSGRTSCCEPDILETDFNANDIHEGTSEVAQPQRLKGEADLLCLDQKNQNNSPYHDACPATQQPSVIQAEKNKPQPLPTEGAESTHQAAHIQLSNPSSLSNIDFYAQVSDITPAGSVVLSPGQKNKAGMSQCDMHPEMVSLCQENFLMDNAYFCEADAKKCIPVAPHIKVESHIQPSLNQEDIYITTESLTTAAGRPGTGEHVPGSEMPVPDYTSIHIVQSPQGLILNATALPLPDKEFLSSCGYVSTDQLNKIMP

Substance	pSTAT5 EC50 (nM) [1] [nM]	Proliferation EC50 [2] [nM]
G131pAF-30KPEG hGH (from UniProt P01241 27-217) (ligand)	23.8	4.6
K145pAF-30KPEG hGH (from UniProt P01241 27-217) (ligand)	20.6	5.3
R134pAF-20KPEG hGH (from UniProt P01241 27-217) (ligand)	5.3	
Y35pAF-40KPEG hGH (from UniProt P01241 27-217) (ligand)	53.3	24
Y143pAF-30KPEG hGH (from UniProt P01241 27-217) (ligand)	12.3	6.6
